Test results reported in patent US10947270B2, “Targeted prodrug cytosine deaminase fusion carrier and application thereof” (National Yang-Ming University, priority 2015, dated 2021).
Values joined by “and” are separate entries in the source; they are usually repeats but may differ in a detail not shown here. Identical values can stand only once. Like-named read-outs stand apart in the source and are kept apart here.

Experiments:
[1] = Enzyme kinetic analysis of EcCD series fusion proteins, substrate 5-FC; format: biochemical; details: for Kcat/Km higher than that of the corresponding WT protein: substrate 5-FC
Source text: (§1) FIGS. 11A-11D show the activity and kinetics analysis of EcCD series fusion protein enzymes, and the EcCD series proteins are combined with 5-FC at different concentrations for reaction. Respectively calculate the 5-FU formation reaction rate shown in FIG. 11A, 5-FC consumption reaction rate shown in FIG. 10B, uracil formation reaction rate shown in FIG. 10C and cytosine consumption reaction rate shown in FIG. 10D, substitute Michaelis-Menten formula, and calculate the base mass (Kcat) and Km value catalyzed by each mol enzyme in unit time.

[2] = molecular target: αvβ3 integrin (Homo sapiens, UniProt P05106+P06756); test: ELISA binding of EcCD series fusion protein and αvβ3 integrin
Source text: FIGS. 13A-13B show the binding activity and specificity test of EcCD fusion protein and αvβ3 integrin receptor. […] (***compared with untreated RGDfv group, P value<0.001, indicating a statistically significant difference)
To confirm the binding ability of RGD4C peptide and αvβ3 integrin, the affinity of the protein and αvβ3 integrin is confirmed by ELISA method. […] This experiment confirms that RGD4C-EcCD_WT and RGD4C-EcCD_D314A have the binding activity of αvβ3 integrin, and this binding has the specificity of RGD4C peptide αvβ3 integrin.

[3] = tested on: U87MG, HUVEC cells; test: RGDfv peptide competition of EcCD fusion protein binding to cells; format: cell-based, human; details: RGDfv peptide at 10-fold relative concentration
Description: FIGS. 14A-14E show the binding activity and specificity test of EcCD fusion protein and U87MG, HUVEC and MCF-7 cell strain. […] (***compared to the untreated RGDfv group, P value<0.001, indicating a statistically significant difference)
It is confirmed from the above experimental results that the EcCD series protein fused to the RGD4C peptide has the binding activity with the expressing αvβ3 integrin cell strain, and the binding has the specificity of the RGD4C peptide and αvβ3 integrin of the cell expression, and also confirmed that the D314A mutation will not affect the binding activity of the RGD4C peptide and αvβ3 integrin.

[4] = Relative substrate selectivity of cytosine deaminase enzyme for 5-FC and cytosine (formula 1); format: biochemical; details: for [Kcat/Km(5-FC)]/{[Kcat/Km(cytosine)] + [Kcat/Km(5-FC)]}: relative substrate selectivity to 5-FC
Source text: Evaluation of the relative substrate selectivity of cytosine deaminase enzyme for 5-FC and Cytosine can be expressed by the following formula 1,
The higher the value, the higher the selectivity of the enzyme to the 5-FC substrate.

[5] = Enzyme kinetic analysis of EcCD series fusion proteins, substrate cytosine; format: biochemical; details: for Kcat/Km lower than that of the corresponding WT protein: substrate cytosine
Source text: as §1, with “time. […]” for “time.”

[6] = tested on: U87MG, HUVEC and MCF-7 cells; test: Immunofluorescence of binding and distribution of EcCD fusion proteins in cells; format: cell-based, human; details: 37° C., 2 hours
Description: FIGS. 15A-15C show the binding and distribution of EcCD fusion proteins in U87MG, HUVEC and MCF-7 cell strain. The immunofluorescence staining is used to observe and experiment the EcCD fusion protein, which are respectively acted with U87MG cells in FIG. 15A, HUVEC cells in FIG. 15B and MCF-7 cells in FIG. 15C for 2 hours at 37° C., then fixed with 2% para-formadehyde, the fixed cells are first permeabilized with 0.1% Triton X-100 for 10 minutes, after that, cultured with 1% BSA blocking (dissolved in PBS containing Ca^2+, Mg^2+) for 1 hour at room temperature, then add a 1st antibody (Rabbit anti-His^6tag, Mouse anti-human CD51/61αvβ3 integrin), and then add a 2nd antibody (Anti-rabbit IgG-CF640R, Anti-mouse IgG-Alexa488), the protein distribution is observed by conjugated fluorescence microscope. (Green signal: αvβ3 integrin; red signal: anti-His^6tag; blue signal: Hoechst 33342 cell nucleus stain) (Scale bars: 20 μm)
Immunofluorescence is used to observe the distribution of the protein bound with cell in the cell. U87MG, HUVEC and MCF-7 cells act with culture medium containing EcCD_WT, RGD4C-EcCD_WT, EcCD_D314A and RGD4C-EcCD_D314A proteins at 37° C. for 2 hours, stain the cell, and observe protein distribution by the conjugated fluorescence microscopy.

[7] = literature, Biochemistry 2004, 43, 8957-8964; cited from earlier work
[8] = 5-FC consumption (Table 5), listed as RGD4C-EcCDWT
[9] = 5-FU generation, listed as RGD4C-EcCDWT
[10] = RGDfv peptide at 10-fold concentration
[11] = RGDfv peptide at same concentration
[12] = cytosine consumption, listed as RGD4C-EcCDWT
[13] = uracil generation, listed as RGD4C-EcCDWT

αvβ3 integrin, sequence (P06756 31-889 limits assumed): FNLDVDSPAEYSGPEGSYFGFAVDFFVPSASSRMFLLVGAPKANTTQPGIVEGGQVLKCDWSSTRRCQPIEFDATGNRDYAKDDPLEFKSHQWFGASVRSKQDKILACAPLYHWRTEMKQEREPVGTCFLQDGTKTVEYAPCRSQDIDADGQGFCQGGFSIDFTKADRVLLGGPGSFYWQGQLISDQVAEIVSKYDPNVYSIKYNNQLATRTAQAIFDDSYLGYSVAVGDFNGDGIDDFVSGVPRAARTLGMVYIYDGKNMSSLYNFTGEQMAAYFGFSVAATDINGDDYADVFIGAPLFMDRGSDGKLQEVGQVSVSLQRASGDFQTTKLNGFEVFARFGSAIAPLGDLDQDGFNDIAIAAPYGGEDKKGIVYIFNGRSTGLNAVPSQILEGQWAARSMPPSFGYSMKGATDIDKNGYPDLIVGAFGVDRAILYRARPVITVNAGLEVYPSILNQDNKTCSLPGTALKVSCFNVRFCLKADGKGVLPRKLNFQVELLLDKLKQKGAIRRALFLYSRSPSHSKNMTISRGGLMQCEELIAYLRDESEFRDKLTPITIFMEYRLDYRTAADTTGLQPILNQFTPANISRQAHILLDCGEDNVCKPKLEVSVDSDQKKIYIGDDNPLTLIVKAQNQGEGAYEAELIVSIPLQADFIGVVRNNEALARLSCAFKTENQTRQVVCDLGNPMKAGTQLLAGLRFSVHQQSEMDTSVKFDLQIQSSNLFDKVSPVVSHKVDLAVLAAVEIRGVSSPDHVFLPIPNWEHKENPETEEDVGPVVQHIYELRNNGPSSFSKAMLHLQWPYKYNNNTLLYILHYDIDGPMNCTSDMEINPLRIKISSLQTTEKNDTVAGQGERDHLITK
αvβ3 integrin, sequence (P06756 891-1048 partner limits assumed): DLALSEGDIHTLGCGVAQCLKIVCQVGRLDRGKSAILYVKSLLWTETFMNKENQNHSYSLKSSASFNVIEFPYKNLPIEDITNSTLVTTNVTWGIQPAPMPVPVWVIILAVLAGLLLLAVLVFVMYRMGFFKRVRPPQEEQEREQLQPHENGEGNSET
αvβ3 integrin, sequence (P05106 27-788): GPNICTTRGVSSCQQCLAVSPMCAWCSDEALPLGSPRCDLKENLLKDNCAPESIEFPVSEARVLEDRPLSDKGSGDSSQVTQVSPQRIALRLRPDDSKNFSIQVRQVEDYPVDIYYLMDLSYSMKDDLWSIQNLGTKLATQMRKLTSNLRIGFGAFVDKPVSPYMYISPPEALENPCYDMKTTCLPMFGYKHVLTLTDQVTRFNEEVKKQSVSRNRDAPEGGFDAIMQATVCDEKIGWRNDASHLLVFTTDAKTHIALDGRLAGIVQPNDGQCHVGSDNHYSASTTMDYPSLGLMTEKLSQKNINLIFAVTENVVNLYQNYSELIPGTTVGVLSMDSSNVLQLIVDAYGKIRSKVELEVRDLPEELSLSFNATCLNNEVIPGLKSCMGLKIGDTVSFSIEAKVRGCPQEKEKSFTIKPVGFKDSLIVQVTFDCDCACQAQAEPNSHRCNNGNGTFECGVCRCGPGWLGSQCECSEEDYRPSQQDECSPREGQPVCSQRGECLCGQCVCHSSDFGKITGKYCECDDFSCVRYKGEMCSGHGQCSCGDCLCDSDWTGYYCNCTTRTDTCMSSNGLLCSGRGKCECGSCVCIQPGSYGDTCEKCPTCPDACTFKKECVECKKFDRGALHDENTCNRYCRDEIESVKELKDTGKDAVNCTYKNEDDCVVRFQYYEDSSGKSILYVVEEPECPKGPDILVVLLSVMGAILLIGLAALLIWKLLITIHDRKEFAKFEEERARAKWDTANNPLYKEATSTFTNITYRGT

Molecule	Kcat ([1]; 5-FC consumption (Table 5))	Km ([1]; 5-FC consumption (Table 5))	Kcat ([1]; 5-FU generation)	Km ([1]; 5-FU generation)	inhibition of binding capacity by RGDfv peptide [2, 10]	inhibition of binding capacity by RGDfv peptide [2, 11]	inhibition of binding by RGDfv peptide competition [3]	[Kcat/Km(5-FC)]/{[Kcat/Km(cytosine)] + [Kcat/Km(5-FC)]} [4]	Kcat ([5]; cytosine consumption) [s⁻¹]	Km ([5]; cytosine consumption)	Kcat ([5]; uracil generation) [s⁻¹]	Km ([5]; uracil generation)	binding with cells [6]	internalization [6]	Kcat/Km higher than that of the corresponding WT protein [1]	relative substrate selectivity to 5-FC higher than the corresponding WT protein [4]	Kcat/Km lower than that of the corresponding WT protein [5]	[Kcat/Km(5-FC)]/{[Kcat/Km(cytosine)] + [Kcat/Km(5-FC)]} [7]	other results
RGD4C-EcCD_WT: targeted prodrug enzyme fusion protein (SEQ ID NO: 19) (protein, RGD4C_EcCD_WT) MGCDCRGDCFCMSNNALQTIINARLPGEEGLWQIHLQDGKISAIDAQSGVMPITENSLDAEQGLVIPPFVEPHIHLDTTQTAGQPNWNQSGTLFEGIERWAERKALLTHDDVKQRAWQTLKWQIANGIQHVRTHVDVSDATLTALKAMLEVKQEVAPWIDLQIVAFPQEGILSYPNGEALLEEALRLRADVVGAIPHFEFTREYGVESLHKTFALAQKYDRLIDVHCDEIDDEQSRFVETVAALAHHEGMGARVTASHTTAMHSYNGAYTSRLFRLLKMSGINFVANPLVNIHLQGRFDTYPKRRGITRVKEMLESGINVCFGHDDVFDPWYPLGTANMLQVLHMGLHVCQLMGYGQINDGLNLITHHSARTLNLQDYGIAAGNSANLIILPAENGFDALRRQVPVRYSVRGGKVIASTQPAQTTVYLEQPEAIDYKRLEHHHHHH	10.7 ± 0.5 s⁻¹	2300 ± 400 µM	10.8 ± 0.6 s⁻¹	2300 ± 500 µM	about 80%	about 30%	about 50%	0.047	148.9 ± 4.7	1700 ± 200 µM	141.7 ± 5.5	1500 ± 200 µM	have the ability of binding with U87MG and HUVEC cells	will enter the internalization					Kcat [1, 8]: 10.9 ± 0.5 s⁻¹; Km [1, 8]: 2400 ± 400 µM; Kcat [1, 9]: 10.8 ± 0.5 s⁻¹; Km [1, 9]: 2400 ± 500 µM; [Kcat/Km(5-FC)]/{[Kcat/Km(cytosine)] + [Kcat/Km(5-FC)]} ([4]; listed as RGD4C- EcCDWT): 0.048; Kcat [5, 12]: 143.9 ± 5.1 s⁻¹; Km [5, 12]: 1600 ± 200 µM; Kcat [5, 13]: 150.8 ± 4.4 s⁻¹; Km [5, 13]: 1700 ± 100 µM
RGD4C-EcCD_D314A: targeted prodrug enzyme fusion protein (SEQ ID NO: 20) (protein, RGD4C_EcCD_D314A) MGCDCRGDCFCMSNNALQTIINARLPGEEGLWQIHLQDGKISAIDAQSGVMPITENSLDAEQGLVIPPFVEPHIHLDTTQTAGQPNWNQSGTLFEGIERWAERKALLTHDDVKQRAWQTLKWQIANGIQHVRTHVDVSDATLTALKAMLEVKQEVAPWIDLQIVAFPQEGILSYPNGEALLEEALRLRADVVGAIPHFEFTREYGVESLHKTFALAQKYDRLIDVHCDEIDDEQSRFVETVAALAHHEGMGARVTASHTTAMHSYNGAYTSRLFRLLKMSGINFVANPLVNIHLQGRFDTYPKRRGITRVKEMLESGINVCFGHDAVFDPWYPLGTANMLQVLHMGLHVCQLMGYGQINDGLNLITHHSARTLNLQDYGIAAGNSANLIILPAENGFDALRRQVPVRYSVRGGKVIASTQPAQTTVYLEQPEAIDYKRLEHHHHHH	38.6 ± 1.0 s⁻¹ and 39.1 ± 1.0 s⁻¹	3500 ± 200 µM	39.4 ± 1.1 s⁻¹ and 38.4 ± 0.8 s⁻¹	3500 µM and 3400 µM	about 80%	about 30%	about 50%	0.648	17.7 ± 1.3	3000 µM and 2900 µM	21.7 ± 4.8	3800 ± 1700 µM	have the ability of binding with U87MG and HUVEC cells	will enter the internalization	about 2.4 times	about 13.8 times	about 15.5 times		[Kcat/Km(5-FC)]/{[Kcat/Km(cytosine)] + [Kcat/Km(5-FC)]} ([4]; listed as RGD4C- EcCD_D314A): 0.664
EcCD_WT: E. coli. cytosine deaminase (EcCD), wild type, without target molecule (protein, EcCD_WT, E. coli. cytosine deaminase (EcCD), wild type, without target molecule) MSNNALQTIINARLPGEEGLWQIHLQDGKISAIDAQSGVMPITENSLDAEQGLVIPPFVEPHIHLDTTQTAGQPNWNQSGTLFEGIERWAERKALLTHDDVKQRAWQTLKWQIANGIQHVRTHVDVSDATLTALKAMLEVKQEVAPWIDLQIVAFPQEGILSYPNGEALLEEALRLRADVVGAIPHFEFTREYGVESLHKTFALAQKYDRLIDVHCDEIDDEQSRFVETVAALAHHEGMGARVTASHTTAMHSYNGAYTSRLFRLLKMSGINFVANPLVNIHLQGRFDTYPKRRGITRVKEMLESGINVCFGHDDVFDPWYPLGTANMLQVLHMGLHVCQLMGYGQINDGLNLITHHSARTLNLQDYGIAAGNSANLIILPAENGFDALRRQVPVRYSVRGGKVIASTQPAQTTVYLEQPEAIDYKRLEHHHHHH	9.2 ± 0.8 s⁻¹ and 8.8 ± 0.8 s⁻¹	2800 µM and 2700 µM	8.8 ± 0.9 s⁻¹ and 9.2 ± 0.6 s⁻¹	2900 ± 800 µM				0.032	132.0 ± 5.0	1300 ± 100 µM	157.3 ± 2.4	1600 µM and 1700 µM	do not have the ability of binding with U87MG and HUVEC cells					0.027	[Kcat/Km(5-FC)]/{[Kcat/Km(cytosine)] + [Kcat/Km(5-FC)]} ([4]; listed as EcCDWT): 0.033
EcCD_D314A: E. coli. cytosine deaminase (EcCD) mutant D314A, without target molecule (protein, EcCD_D314A, E. coli. cytosine deaminase (EcCD) mutant D314A, without target molecule) MSNNALQTIINARLPGEEGLWQIHLQDGKISAIDAQSGVMPITENSLDAEQGLVIPPFVEPHIHLDTTQTAGQPNWNQSGTLFEGIERWAERKALLTHDDVKQRAWQTLKWQIANGIQHVRTHVDVSDATLTALKAMLEVKQEVAPWIDLQIVAFPQEGILSYPNGEALLEEALRLRADVVGAIPHFEFTREYGVESLHKTFALAQKYDRLIDVHCDEIDDEQSRFVETVAALAHHEGMGARVTASHTTAMHSYNGAYTSRLFRLLKMSGINFVANPLVNIHLQGRFDTYPKRRGITRVKEMLESGINVCFGHDAVFDPWYPLGTANMLQVLHMGLHVCQLMGYGQINDGLNLITHHSARTLNLQDYGIAAGNSANLIILPAENGFDALRRQVPVRYSVRGGKVIASTQPAQTTVYLEQPEAIDYKRLEHHHHHH	35.1 ± 1.7 s⁻¹ and 36.2 ± 1.5 s⁻¹	3800 µM and 4000 µM	36.2 ± 1.8 s⁻¹ and 35.4 ± 0.8 s⁻¹	3900 ± 600 µM				0.558 and 0.535	22.3 ± 1.6	2600 ± 400 µM	24.5 ± 1.1	3000 µM and 3100 µM	do not have the ability of binding with U87MG and HUVEC cells		about 3.1 times	about 17.4 times	about 12.5 times	0.513	
